Patent US20200148777A1 (GAMAMABS PHARMA, published 2020)

T1: MISRII (AMHRII), immobilised on CM5 sensor chip (UniProt Q16671 18-144, limits assumed)
T1 construct: also called MSRII; immobilized receptor
T1 sequence (looked up): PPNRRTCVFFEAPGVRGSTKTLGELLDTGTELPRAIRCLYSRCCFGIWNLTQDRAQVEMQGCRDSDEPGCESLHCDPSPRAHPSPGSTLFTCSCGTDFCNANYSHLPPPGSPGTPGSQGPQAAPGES

T2: human Fcγ RII/CD32a (human, UniProt P12318 36-218)
T2 construct: Captured through anti-His antibody, so a His tag is implied but not described; also called hFcγRIIa
T2 sequence (looked up): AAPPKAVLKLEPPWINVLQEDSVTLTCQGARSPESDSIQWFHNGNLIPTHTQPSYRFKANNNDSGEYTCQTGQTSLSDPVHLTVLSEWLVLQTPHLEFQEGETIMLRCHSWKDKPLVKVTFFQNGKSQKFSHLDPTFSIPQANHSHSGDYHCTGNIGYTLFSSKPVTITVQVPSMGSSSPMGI

T3: human Fcγ RIIbc/CD32bc (human, UniProt P31994 46-217)
T3 construct: treated here as one molecule; also called hFcγRIIb
T3 sequence (looked up): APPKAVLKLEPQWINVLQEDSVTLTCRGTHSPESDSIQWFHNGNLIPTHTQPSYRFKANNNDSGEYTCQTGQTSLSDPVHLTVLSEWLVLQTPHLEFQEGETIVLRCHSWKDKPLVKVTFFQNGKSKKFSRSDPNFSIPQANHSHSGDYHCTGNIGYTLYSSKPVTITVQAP

B1: 3C23K humanised anti-AMHRII monoclonal antibody produced in YB2/0 cells (hypofucosylated, EMABling version) (antibody, human IgG1, kappa)
heavy: not shown
light: DIQMTQSPSTLSASVGDRVTITCRASSSVRYIAWYQQKPGKAPKLLTYPTSSLKSGVPSRFSGSGSGTEFTLTISSLQPDDFATYYCLQWSSYPWTFGGGTKVEIKRTVAAPSVFIFPPSDEQLKSGTASVVCLLNNFYPREAKVQWKVDNALQSGNSQESVTEQDSKDSTYSLSSTLTLSKADYEKHKVYACEVTHQGLSSPVTKSFNRGEC
modifications: N-glycan at ASN295 of the heavy chain, hypofucosylated (33.0% fucosylated isoforms for 3C23K from YB2/0)
notes: also called GM102; R18H2
B2: 3C23K antibody expressed in HEK293 cells (antibody, human IgG1, kappa)
heavy: not shown
light: B1 light
notes: It differs from m1 only in glycosylation; also called 3C23K-HEK293
B3: murine anti-MISRII monoclonal antibody 12G4 (antibody, V domains shown)
VH: QVQLQQSGPELVKPGASVRMSCKASGYTFTSYHIHWVKQRPGQGLEWIGWIYPGDDSTKYNEKFKGKTTLTADKSSSTAYMLLSSLTSEDSAIYFCTRGDRFAYWGQGTLVTVSA
VL: QIVLTQSPAIMSASLGEGITLTCSASSSVRYIHWYQQKSGTSPKLLIYSTSNLASGVPSRFSGSGSGTFHSLTISSVEAEDAADYYCLQWSSYPWTFGGGTKLEIK

Columns and labels:
human Fcγ RIIIa/CD16a [1] = target: T4, human Fcγ RIIIa/CD16a (human, UniProt P08637 17-208); assay: SPR (Biacore); description's upper bound for hypofucosylated 3C23K (YB2/0)
T4 construct: Captured through anti-His antibody, so a His tag is implied but not described; also called hFcγRIIIa

[2] = target: T1, MISRII (AMHRII), immobilised on CM5 …; assay: SPR, MISRII immobilised on CM5 chip, IgG injected, Langmuir 1:1 fit (affinity and avidity)
Protocol: (§1) SPR analyses were performed on a Bia3000 or T200 apparatus at 25° C. in HBS-EP (GE Healthcare). For affinity measurements, MISRII was covalently immobilized (1000 RU) on CM5 sensor chip using EDC/NHS activation according to the manufacturer's instructions (GE Healthcare). Different concentrations (0.5-128 nM) of 12G4 or 3C23K were injected on immobilized receptor during 180 seconds. After 400 seconds of dissociation in running buffer, the sensor chip was regenerated using Gly-HCl pH 1.7. The KD values, taking into account affinity and avidity, were calculated using a Langmuir 1:1 fitting model (BiaEvaluation3.2, GE Healthcare). Antibody-FcγR measurements were performed by single-cycle titration at 100 μl/min on FcγR (Sigma) captured on anti-His (R&D Systems) covalently immobilized at 4000-5000 RU level. The gamma receptor was injected at 20 nM during 60 seconds and five increasing antibody concentrations were injected (injection time=60 seconds). […] Kinetic parameters were evaluated from the sensorgrams using a heterogeneous Ligand or steady-state fitting models on the T200 evaluation software 3.0 (GE healthcare). […]
To better define the binding characteristics, clone 3C23K was reformatted as an IgG1 antibody, produced in YB2/0 cells and analyzed by surface plasmon resonance (SPR). […]

human Fcγ RIIIb/hCD16b [3] = target: T5, human Fcγ RIIIb/hCD16b (human, UniProt O75015 17-200); assay: SPR, single-cycle titration, FcγR captured on anti-His; 3C23K from YB2/0, low fucose (33.0% fucosylated)
T5 construct: Captured through anti-His antibody, so a His tag is implied but not described; also called hFcγRIIIb
Protocol: as §1
(§2) The percentages of fucosylated, galactosylated and bisecting GlcNAc isoforms were 33.0%, 57.2% and 1.8% for 3C23K and 94.6%, 54.4% and 2.0%, for 3C23K-CHO, respectively. The effect of these glycosylation differences on the binding to FcγRs was analyzed by SPR.

human Fcγ RI/CD64 [4] = target: T6, human Fcγ RI/CD64 (human, UniProt P12314 16-288); assay: SPR T200, single-cycle titration, receptor captured on anti-His; two state reaction model
T6 construct: Captured through anti-His antibody, so a His tag is implied but not described; also called hFcγRI
Protocol: (§3) Anti-histidine antibodies (R&D Systems) were immobilized on a T200 apparatus at 25° C. in HBS-EP at 10 μl/min flow rate on a CM5 sensor chip using EDC/NHS activation, according to the manufacturer's instructions (GE Healthcare). They were covalently immobilized at the 6900RU level on the flowcell Fc2 and a control reference surface (flowcell Fc1) was prepared using the same chemical treatment but without anti-His antibodies.
(§4) All kinetic measurements in Fc1 and Fc2 were performed by single-cycle titration on a T200 apparatus at 25° C. in HBS-EP at 100 μl/min. Each human gamma receptor (R&D Systems) was captured on immobilized anti-His antibodies at 20 nM during 60 s. Five increasing concentrations of antibody were injected (injection time=120 s). After a dissociation step of 600 s in running buffer, sensor surfaces were regenerated using 5 μl of glycine-HCl pH1.7. All the sensorgrams were corrected by subtracting the low signal from the control reference surface and buffer blank injections. Kinetic parameters were evaluated from the sensorgrams using a heterogeneous ligand or two states models from the T200 evaluation software.
(§5) The results of the measure of the affinity constants (Kd) of the hypo-fucosylated anti-AMHRII 3C23K antibody for the human Fc receptors are depicted in Table 4 below.

human Fcγ RIIIb/hCD16b [5] = target: T5, human Fcγ RIIIb/hCD16b; assay: SPR T200, single-cycle titration, receptor captured on anti-His; heterogeneous ligand model (footnote *)
Protocol: as §3, §4, §5

human Fcγ RII/CD32a = target: T2, human Fcγ RII/CD32a; assay: as above
Protocol: as §3, §4, §5

human Fcγ RIIIa/CD16a [6] = target: T4, human Fcγ RIIIa/CD16a; assay: SPR, single-cycle titration, FcγR captured on anti-His; 3C23K from YB2/0, low fucose (33.0% fucosylated); lower end of the range 1-12 nM
Protocol: as §1, §2

human Fcγ RIIIa/CD16a [7] = target: T4, human Fcγ RIIIa/CD16a; assay: SPR, single-cycle titration, FcγR captured on anti-His; 3C23K from YB2/0, low fucose (33.0% fucosylated); upper end of the range 1-12 nM
Protocol: as §1, §2

human Fcγ RIIbc/CD32bc = target: T3, human Fcγ RIIbc/CD32bc; assay: SPR, FcγR captured on anti-His
Protocol: as §1, §2

human Fcγ RI/CD64 [8] = target: T6, human Fcγ RI/CD64; assay: SPR, FcγR captured on anti-His
Protocol: as §1, §2

human Fcγ RIIIb/hCD16b [9] = target: T5, human Fcγ RIIIb/hCD16b; assay: SPR, single-cycle titration, FcγR captured on anti-His; 3C23K-HEK293, expressed in HEK293 (comparator, not fucose-reduced)
Protocol: as §1, §2

human Fcγ RIIIa/CD16a [10] = target: T4, human Fcγ RIIIa/CD16a; assay: SPR, single-cycle titration, FcγR captured on anti-His; 3C23K-HEK293, expressed in HEK293 (comparator, not fucose-reduced); lower end of the range 31-164 nM
Protocol: as §1, §2

human Fcγ RIIIa/CD16a [11] = target: T4, human Fcγ RIIIa/CD16a; assay: SPR, single-cycle titration, FcγR captured on anti-His; 3C23K-HEK293, expressed in HEK293 (comparator, not fucose-reduced); upper end of the range 31-164 nM
Protocol: as §1, §2

T5 sequence (O75015 17-200 limits assumed): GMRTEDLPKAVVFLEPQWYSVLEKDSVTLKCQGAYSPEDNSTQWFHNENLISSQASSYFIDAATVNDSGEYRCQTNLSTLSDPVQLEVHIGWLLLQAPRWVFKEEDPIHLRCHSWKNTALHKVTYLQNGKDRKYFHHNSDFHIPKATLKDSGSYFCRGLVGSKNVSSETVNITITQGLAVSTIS
T4 sequence (P08637 17-208 limits assumed): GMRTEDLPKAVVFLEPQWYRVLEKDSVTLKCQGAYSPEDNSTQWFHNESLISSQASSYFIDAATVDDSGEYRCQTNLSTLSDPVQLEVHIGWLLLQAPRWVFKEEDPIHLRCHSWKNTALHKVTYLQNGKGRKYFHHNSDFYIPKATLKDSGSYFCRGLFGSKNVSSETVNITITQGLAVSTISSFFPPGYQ
T6 sequence (P12314 16-288 limits assumed): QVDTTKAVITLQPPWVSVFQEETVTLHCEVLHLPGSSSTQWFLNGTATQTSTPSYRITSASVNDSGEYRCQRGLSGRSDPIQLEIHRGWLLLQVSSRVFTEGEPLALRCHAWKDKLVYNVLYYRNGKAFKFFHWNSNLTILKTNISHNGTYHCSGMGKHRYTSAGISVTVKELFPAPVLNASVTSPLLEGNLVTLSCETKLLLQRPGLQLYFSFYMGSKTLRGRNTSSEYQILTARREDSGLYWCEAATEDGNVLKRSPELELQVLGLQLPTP

Row | Binder | Kd (human Fcγ RIIIa/CD16a [1]) [nM] | Kd [2] [nM] | Kd (human Fcγ RIIIb/hCD16b [3]) [nM] | Kd (human Fcγ RI/CD64 [4]) [nM] | Kd (human Fcγ RIIIb/hCD16b [5]) [nM] | Kd (human Fcγ RII/CD32a) [nM] | Kd (human Fcγ RIIIa/CD16a [6]) [nM] | Kd (human Fcγ RIIIa/CD16a [7]) [nM] | binding result (human Fcγ RIIbc/CD32bc) | binding result (human Fcγ RI/CD64 [8]) | Kd (human Fcγ RIIIb/hCD16b [9]) [nM] | Kd (human Fcγ RIIIa/CD16a [10]) [nM] | Kd (human Fcγ RIIIa/CD16a [11]) [nM]
1 | B1 | < 50 | 0.055 | 86 | 0.2 to 3.3 | 49 | 120 | ≥ 1 | ≤ 12 |  |  |  |  | 
2 | B2 |  |  |  |  |  |  |  |  | binds | binds | 378 | ≥ 31 | ≤ 164
3 | B3 |  | 0.79 |  |  |  |  |  |  |  |  |  |  | 
